Laboratory results as given in patent publication US20190374608A1 (BOARD OF TRUSTEES OF THE UNIVERSITY OF ILLINOIS, published 2019).
Where no end group is shown, it is not given here. (CH2CH2O)27 = 27 units of polyethylene glycol linked to the C-terminal Asp, ending in NH2

T1: human CCR3 on cells (AML14.3D10-CCR3 cells, blood eosinophils, 4DE4-CCR3 cells) (human, UniProt P51677 1-355)
T1 sequence (looked up): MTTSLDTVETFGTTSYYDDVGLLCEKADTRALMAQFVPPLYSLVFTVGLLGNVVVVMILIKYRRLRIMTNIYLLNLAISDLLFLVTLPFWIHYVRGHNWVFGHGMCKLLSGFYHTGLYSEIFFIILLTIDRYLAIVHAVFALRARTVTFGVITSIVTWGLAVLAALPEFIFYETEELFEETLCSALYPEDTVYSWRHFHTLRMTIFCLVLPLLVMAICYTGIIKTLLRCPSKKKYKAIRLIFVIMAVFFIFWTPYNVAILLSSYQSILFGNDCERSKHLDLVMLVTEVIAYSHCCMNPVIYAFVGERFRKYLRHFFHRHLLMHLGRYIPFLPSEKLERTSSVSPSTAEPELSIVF

T2: human CCR3 in membrane preparations, 13C-reductively methylated (CCR3-K-di13CH3) (human, UniProt P51677 1-355, lysines reductively methylated with 13C (K-di13CH3))
T2 construct: also called CCR3 membrane preps; C-C chemokine receptor 3
T2 sequence (looked up): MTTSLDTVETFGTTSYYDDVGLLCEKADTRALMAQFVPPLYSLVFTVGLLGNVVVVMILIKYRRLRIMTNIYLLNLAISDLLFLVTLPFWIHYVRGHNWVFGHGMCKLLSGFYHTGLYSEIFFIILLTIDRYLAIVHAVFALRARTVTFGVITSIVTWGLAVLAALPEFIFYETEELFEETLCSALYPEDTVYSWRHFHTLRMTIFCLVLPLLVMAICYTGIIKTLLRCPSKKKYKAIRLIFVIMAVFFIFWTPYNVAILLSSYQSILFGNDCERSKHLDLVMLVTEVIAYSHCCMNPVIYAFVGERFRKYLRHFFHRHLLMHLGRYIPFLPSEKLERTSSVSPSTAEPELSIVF

B1: R3-2-1 peptide (CCR3 second transmembrane helix peptide analog, PEG27, C-terminal amide) (peptide)
peptide: LLFLVTLPFWIHYVRGHNWVFGHDDD-{(CH2CH2O)27-NH2}
B2: recombinant human CCL11 (ligand)
chain: not shown
notes: also called eotaxin; eotaxin-1

Key:
[1] = target: T1, human CCR3 on cells (AML14.3D10-CCR3 …); test: cell-based or functional assay
[2] = target: T2, human CCR3 in membrane preparations, …; test: NMR, 13C HSQC of 13C-reductively methylated CCR3 membrane preps (0.25 mg/ml) with 1 µM CCL11
Description: FIG. 6A to FIG. 6E show NMR evaluation of the binding of R3-2-1 and CCL11/eotaxin-1 to CCR3 membrane preparations. ¹³C HSQC spectra of ¹³C-reductively methylated CCR3 membrane preps (0.25 mg/ml) were recorded with 1 μM CCL11 and 10 μM R321. FIG. 6A, reductively methylated CCR3 (CCR3-K-di¹³CH3) (gray) and reductively methylated CCR3 with CCL11 (black); FIG. 6B, reductively methylated CCR3 (CCR3-K-di¹³CH3) (gray) and reductively methylated CCR3 with R321 (black); FIG. 6C, reductively methylated CCR3 (CCR3-K-di¹³CH3) (gray) and reductively methylated CCR3 with CCL11 and R321 (black); FIG. 6D, reductively methylated CCR3 with CCL11 (gray) and reductively methylated CCR3 with CCL11 and R321 (black); and FIG. 6E, reductively methylated CCR3 with R321 (gray) and reductively methylated CCR3 with CCL11 and R321 (black) show chemical shift changes indicative of binding. Black arrows indicate the differences in chemical shifts.

Binder	IC50 of inhibition of CCL11/Eotaxin-1 (12 nM)-induced chemotaxis, AML14.3D10-CCR3 cells [1] [nM]	IC50 of inhibition of CCL11/Eotaxin-1 (12 nM)-induced chemotaxis, blood eosinophils [1] [nM]	IC50 of inhibition of CCL24/Eotaxin-2 (20 nM)-induced chemotaxis, AML14.3D10-CCR3 cells [1] [nM]	IC50 of inhibition of CCL24/Eotaxin-2 (20 nM)-induced chemotaxis, blood eosinophils [1] [nM]	IC50 of inhibition of CCL26/Eotaxin-3 (100 nM)-induced chemotaxis, AML14.3D10-CCR3 cells [1] [nM]	IC50 of inhibition of CCL26/Eotaxin-3 (100 nM)-induced chemotaxis, blood eosinophils [1] [nM]	binding result [2]
B1	210	110	140	80	100	160	
B2							binds
